Test results: US20100233173A1 (AstraZeneca / MedImmune, published 2010)

Target: T1, EphA2 (human, UniProt P29317 25-534, limits assumed)
T1 construct: also called biotinylated EphA2; soluble EphA2 antigen
Experiment: BIAcore, ovalbumin immobilised, antigens injected one after the other
Description: FIG. 36. […] The upper curve represents the binding activity of three distinct epitope binding domains present on multispecific epitope binding protein “P1” represented in FIG. […]. Soluble EB, EA, and EphA2 antigens were added to immobilized P1 and the relative binding was measured. The three distinct inflections referenced by the arrows corresponding to the three antigens indicates binding to the immobilized P1. Ovalbumin (bottom curve) was used as a negative control.
Methods: Triple-specific binding ability of P1 (FIG. 3D) was assessed by BIAcore by injecting the three antigens EB, EA and EphA2 sequentially over a P1-coated chip. When the P1 epitope had been saturated with the first antigen (EB), the second antigen (EA) was injected, followed by the injection of the third antigen (EphA2). Ovalbumin was used as a negative binding control.

T1 sequence (P29317 25-534 limits assumed): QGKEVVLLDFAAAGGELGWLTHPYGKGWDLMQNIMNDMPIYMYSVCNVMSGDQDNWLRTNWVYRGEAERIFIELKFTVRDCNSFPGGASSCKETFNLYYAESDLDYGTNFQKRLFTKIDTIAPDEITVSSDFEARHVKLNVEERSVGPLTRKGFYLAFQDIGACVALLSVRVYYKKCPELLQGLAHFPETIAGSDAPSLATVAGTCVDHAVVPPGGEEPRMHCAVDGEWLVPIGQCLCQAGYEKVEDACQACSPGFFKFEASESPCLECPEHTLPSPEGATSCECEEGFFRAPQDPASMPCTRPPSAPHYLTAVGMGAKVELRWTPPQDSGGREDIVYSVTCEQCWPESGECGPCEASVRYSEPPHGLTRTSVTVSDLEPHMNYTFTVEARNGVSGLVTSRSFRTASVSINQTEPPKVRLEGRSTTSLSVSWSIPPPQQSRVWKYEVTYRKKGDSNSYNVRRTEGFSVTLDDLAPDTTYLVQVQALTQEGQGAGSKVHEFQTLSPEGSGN

binding result: no binding
B1: Ovalbumin (other, UniProt P01012 2-386, looked up)
chain: GSIGAASMEFCFDVFKELKVHHANENIFYCPIAIMSALAMVYLGAKDSTRTQINKVVRFDKLPGFGDSIEAQCGTSVNVHSSLRDILNQITKPNDVYSFSLASRLYAEERYPILPEYLQCVKELYRGGLEPINFQTAADQARELINSWVESQTNGIIRNVLQPSSVDSQTAMVLVNAIVFKGLWEKAFKDEDTQAMPFRVTEQESKPVQMMYQIGLFRVASMASEKMKILELPFASGTMSMLVLLPDEVSGLEQLESIINFEKLTEWTSSNVMEERKIKVYLPRMKMEEKYNLTSVLMAMGITDVFSSSANLSGISSAESLKISQAVHAAHAEINEAGREVVGSAEAGVDAASVSEEFRADHPFLFCIKHIATNAVLFFGRCVSP
notes: also called immobilized ovalbumin
